Experimental data: patent US11634477 (dated 2023)

How the values were obtained:
[1] = target: SARS-CoV RBD (SARS-CoV, UniProt P59594); experiment: ELISA
[2] = target: SARS-CoV-2 RBD (SARS-CoV-2, UniProt P0DTC2); experiment: ELISA

| Binder | EC50 [1] [ng/mL] | EC50 [2] [ng/mL] |
| --- | --- | --- |
| C119 (antibody, V domains shown) VH: QVQLVQSGAEVKKPGASVKVSCKASGYTFTSYYMHWVRQAPGQGLEWMGIINPSGGSTSYAQKLQGRVTMTRDTSTSTVYMELSSLRSEDTAVYYCARANHETTMDTYYYYYYMDVWGKGTTVTVSS VL: QSALTQPASVSGSPGQSITISCTGTSSDVGGYKYVSWYQRHPGKAPKLMIYDVSNRPSGVSNRFSGSKSGNTASLTISGLQAEDEADYYCSSYTSSSTSVVFGGGTQLTVL | > 1000 | 3.57 |
| C106 (antibody, V domains shown) VH: QLQLQESGPGLVKPSETLSLTCTVSGASVSSGSYYWSWIRQPPGKGLEWIGYIYYSGSTNYNPSLKSRVTISVDTSKNQFSLKLSSVTAADTAVYYCARERPGGTYSNTWYTPTDTNWFDTWGQGTLVTVSS VL: SYELTQPPSVSVAPGKTARITCGGNNIGSKSVHWYQQKPGQAPVLVIYFDSDRPSGIPERFSGSNSGNTATLTISRVEAGDEADYYCQVWDSSRDHVVFGGGTKLTVL | 107 | 19 |
| C156 (antibody, V domains shown) VH: QVQLVESGGGVVQPGRSLRLSCAASGFTFSNYGMHWVRQAPGKGLEWVAVISYDGNNKYYADSVKGRFTISRDNSKNTLYLQMNSLRAEDTAVYYCAKDPFPLAVAGTGYFDYWGQGTLVTVSS VL: SYELTQPPSVSVAPGQTARISCGGNNIGSKNVHWYQQKPGQAPVLVVYDDSDRPSGIPERFSGSNSGNTATLTISRVEAGDEADYYCQVWDSSSDPWVFGGGTKLTVL | > 1000 | 3.32 |
| C152 (antibody, V domains shown) VH: QVQLVQSGAEVKKPGASVKVSCKASGYTFTSYGISWVRQAPGQGLEWMGWISAYNGNTNYAQKLQGRVTMTTDTSTSTAYMELRSLRSDDTAVFYCARDRGGHDFWSGYGFYYYYGMDVWGQGTTVTVSS VL: DIQMTQSPSSLSASVGDRVTITCRASQGISNYLAWYQQRPGKVPKLLIFAASTLQSGVPSRFSGSGSGTDFTLTISSLQPEDVATYYCQKYNSAPRTFGQGTKVEIK |  | 1.88 |
| C129 (antibody, V domains shown) VH: QVQLVESGGGVVQPGRSLRLSCAASGFTFSSYGMNWVRQAPGKGLEWVAVISYDGSNTYYTDSVKGRFTISRDNSKNTLYLQMNSLRVDDTATYYCAKGPRFGWSYRGGSGFDIWGQGTMVTVSS VL: DIQMTQSPSSLSASVGDRVTITCQASQDISNYLNWYQQKPGKAPKLLIYDASNLETGVPSRFSGSESGTDFTFTISSLQPEDIATYYCQQYDNLPITFGQGTRLEIK |  | 1.16 |
| C101 (antibody, V domains shown) VH: QVQLVESGGGLIQPGGSLRLSCAASGFIVSSNYMSWVRQAPGKGLEWVSVIYSGGSTFYTDSVKGRFTISRDNSKNTLYLQMNSLRAEDTAVYYCVRDYGDFYFDYWGQGTLVTVSS VL: EIVLTQSPGTLSLSPGERATLSCRASQSVSSSYLAWYQQKPGQAPRLLIYGASSRATGIPDRFSGGGSETDFTLTISRLEPEDCAVYYCQQYGSSPRTFGQGTKVEIK | > 1000 | 1.51 |
| C003 (antibody, V domains shown) VH: EVQLVESGGGLIQPGGSLRLSCAASGFTVSSNYMSWVRQAPGKGLEWVSVIYSGGSTYYADSVKGRFTISRDNSKNTLYLQMNSLRAGDTAVYYCARDYGDFYFDYWGQGTLVTVSS VL: not shown | > 1000 | 6.37 |
| C102 (antibody, V domains shown) VH: QVQLVESGGGLIQPGGSLRLSCAASGFIVSSNYMSWVRQAPGKGLEWVSVIYSGGSTFYADSVKGRFTISRDNSKNTLYLQMNSLRAEDTAVYYCARDYGDYYFDYWGQGTLVTVSS VL: not shown | > 1000 | 4.54 |
| C153 (antibody, V domains shown) VH: EVQLVESGGGLIQPGGSLRLSCAASGFTVSSNYMSWVRQAPGKGLEWVSVIYSGYSTYYVDSVKGRFTISRDNSKNTLYLQMNSLRAEDTAVYYCARVGGAHSGYDGSFDYWGQGTLVTVSS VL: QSALTQPASVSGSPGQSITISCTGTSSDVGSYNLVSWYQQHPGKAPKLMIYEGSKRPSGVSNRFSGSKSGNTASLTISGLQAEDEADYYCCSYAGSSTWVFGGGTKLTVL | > 1000 | 3.17 |
| C126 (antibody, V domains shown) VH: QVQLQESGPGLVKPSETLSLSCAVSGGSIGSYFWSWIRQPPGKGLEWIGYLHYSGSTNYNPSLKSRVTISVDTSKNQFSLKLSSVTAADTAVYYCARLQWLRGAFDIWGQGTMVTVSS VL: NFMLTQPHSVSESPGKTVTISCTGSSGSIASNYVQWYQQRPGSAPTTVINEDNQRPSGVPDRFSGSIDSSSNSASLTISGLKTEDEADYYCQSYDSSNLVFGGGTKLTVL | > 1000 | 4.78 |
| C105 (antibody, V domains shown) VH: QVQLVESGGGLIQPGGSLRLSCAASGFTVSSNYMSWVRQAPGKGLEWVSVIYSGGSTYYADSVKGRFTISRDNSKNTLYLQMNSLRAEDTAVYYCARGEGWELPYDYWGQGTLVTVSS VL: QSALTQPPSASGSPGQSVTISCTGTSSDVGGYKYVSWYQQHPGKAPKLMIYEVSKRPSGVPDRFSGSKSGNTASLTVSGLQAEDEADYYCSSYEGSNNFVVFGGGTKLTVL | > 1000 | 5.2 |
| C010 (antibody, V domains shown) VH: EVQLVESGGGVVQPGRSLRLSCAASGFTFSSYAMHWVRQAPAKGLEWVAVILYDGSGKYYADSVKGRFTISRDNSKNTLYLQMNSLRAEDTAVYYCARDGIVDTALVTWFDYWGQGTLVTVSS VL: not shown | > 1000 | 5.44 |
| C165 (antibody, V domains shown) VH: QVQLVQSGAEVKKPGSSVKVSCKASGGTFSSYAINWVRQAPGQGLEWMGRIIPIVGIANYAQKFQGRVTITADKSSSTAYMELSSLRSEDTAVYYCARDLLDPQLDDAFDIWGQGTMVTVSS VL: not shown | > 1000 | 4.25 |
| C115 (antibody, V domains shown) VH: QVQLVESGGGLIKPGRSLRLSCTASGFTFGDYAMTWFRQAPGKGLEWVGFIRSKAYGGTTGYAASVKYRFTISRDDSKSIAYLQMDSLKTEDTAVYYCTRWDGWSQHDYWGQGTLVTVSS VL: DIVMTQSPLSLSVTPGEPASISCRSSQSLLHSNGNNYFDWYLQKPGQSPQLLIYLGSNRASGVPDRFSGSGSGTDFTLKISRVEAEDVGVYYCMQVLQIPYTFGQGTKLEIK | > 1000 | 3.4 |
| C146 (antibody, V domains shown) VH: EVQLVESGGGLVKPGGSLRLSCAASGLTFTAYRMNWVRQAPGKGLEWLSSISNTNGDIYYADSVKGRFTISRDNAKNSLYLQMNSLRADDTAVYYCARDVASNYAYFDLWGQGTLVTVSS VL: QSALTQPASVSGSPGQSITISCTGTSSDIGVYNYISWSQQHPGKAPKVMIYDVTNRPSGVSNRFSGSKSGNTASLTISGLQAEDEADYYCSSYRGSSTPYVFGTGTKVTVL | > 1000 | > 1000 |
| C131 (antibody, V domains shown) VH: QVQLVQSGSEVKKPGSSVKVSCKASGGTFSSYAFSWVRQAPGQGLEWMGRIIPILALANYAQKFQGRVTITADKSTSTAYMELSSLRSEDTAVYYCARVNQAVTTPFSMDVWGQGTTVTVSS VL: not shown | > 1000 | 1.67 |
| C027 (antibody, V domains shown) VH: EVQLVESGGGVVQPGRSLRLSCAASGFTFSSYGMHWVRQAPGKGLEWVAVISYDGSNKYYADSVKGRFTISRDNSKNTLYLQMNSLRAEDTAVYYCAKASGIYCSGGDCYSYYFDYWGQGTLVTVSS VL: not shown | 696 | 2.65 |
| C144 (antibody, V domains shown) VH: EVQLVESGGGLIQPGGSLRLSCAASGFTVSNNYMSWVRQAPGKGLEWVSVIYSGGSTYYADSVKGRFTISRDKSKNTLYLQMNRLRAEDTAVYYCAREGEVEGYNDFWSGYSRDRYYFDYWGQGTLVTVSS VL: QSALTQPASVSGSPGQSITISCTGTSSDVGGYNYVSWYQQHPGKAPKLMIYDVSNRPSGVSNRFSGSKSGNTASLTISGLQAEDEADYYCSSYTSSSTRVFGTGTKVTVL | > 1000 | 3.24 |
| C112 (antibody, V domains shown) VH: QVQLVESGGGVVQPGRSLRLSCAASGFTFSSHAMHWVRQAPGKGLEWVAVISYDGSNKYYADSVKGRFTISRDNSKNTLYLQMNSLRAEDTAVYYCAREDYYDSSGSFDYWGQGTLVTVSS VL: QSALTQPASVSGSPGQSITISCTGTSSDVGGYNYVSWYQQHPGKAPKLMIYDVSNRPSGVSNRFSGSKSGNTASLTISGLQAEDEADYYCSSYTSSSTWVFGGGTKLTVL | > 1000 | 3.38 |
| C132 (antibody, V domains shown) VH: QVQLQESGPGLVKPSGTLSLTCAVSGGSISSNNWWSCVRQPPGKGLEWIGEIYHSGSTNYNPSLKSRVTISVDKSKNQFSLKLSSVTAADTAVYYCARGGDTAMGPEYFDYWGQGTLVTVSS VL: QSALTQPASVSGSPGQSITISCTGTSSDVGGYNYVSWYQQHPGKAPKLMIYDVSNRPSGVSNRFSGSKSGNTASLTISGLQAEDEADYYCSSYTSSSTLLFGGGTKLTVL | > 1000 | 2.92 |
| C108 (antibody, V domains shown) VH: QVQLQESGPGLVKPSGTLSLTCAVSGGSISSTNWWSWVRQPPGKGLEWIGEIYHTGSTNYNPSLKSRVTISVDKSKNQFSLKLSSVTAADTAVYYCVRDGGRPGDAFDIWGQGTMVTVSS VL: QSALTQPASVSGSPGQSITISCTGTSSDVGGYNYVSWYQQHPGKAPKLMIYDVSNRPSGVSNRFSGSKSGNTASLTISGLQAEDEADYYCNSYTSSSTRVFGTGTKVTVL | > 1000 | 5.32 |
| C135 (antibody, V domains shown) VH: QVQLVESGGGVVQPGRSLRLSCAASGFTFSSYAMHWVRQAPGKGLEWVAVIPFDGRNKYYADSVTGRFTISRDNSKNTLYLQMNSLRAEDTAVYYCASSSGYLFHSDYWGQGTLVTVSS VL: DIQMTQSPSTLSASVGDRVTITCRASQSISNWLAWFQQKPGKAPKLLIYEASSLESGVPSRFSGSGSGTEFTLTISSLQPDDFATYYCQQYNSYPWTFGQGTKVEIK | > 1000 |  |
| C212 (antibody, V domains shown) VH: QVQLVQSGAEVKKPGASVKVSCKASGYTVTGYYIHWVRQAPGQGLEWMGWISPNSGGTNYAQKFQGWVTMTRDMSITTAYMELSRLRSDDTAVYYCARERYFDLGGMDVWGQGTTVTVSS VL: LTQPASVSGSPGQSITISCTGTSSDVGSYNLVSWYQQHPGKAPKLMIYEDSKRPSGVSNRFSGSKSGNTASLTISGLQAEDEADYYCCSYAGSSTRLFGGGTKLTVL | > 1000 | > 1000 |
